The subject of one assay is NCI-H596 tumors. Nature of the assay: Combination efficacy of MetMAb with erlotinib in the NCI-H596 hu-HGF-Tg-C3H-SCID xenograft model. In kind it is in vivo. Conditions: NCI-H596 tumors in hu-HGF-Tg-C3H-SCID mice, MetMAb 30 mg/kg IP once, erlotinib 150 mg/kg PO QD x2 weeks; for reduction in tumor growth compared to the vehicle control: day 20. Here is the method:
Test Material. Anti-c-met monovalent monoclonal antibody MetMAb (rhuOA5D5v2) was provided by the Antibody Engineering Department at Genentech, Inc., in a clear liquid form at 10.6 mg/ml. The vehicle was 10 mM histidine succinate, 4% trehalose dihydrate, 0.02% polysorbate 20, pH 5.7. Erlotinib (TARCEVA™) was provided by OSI Pharmaceuticals to the Pharmaceutics Department at Genentech and was weighed out along with a sufficient amount of vehicle (methylcellulose tween (MCT)). All material was shipped from Genentech, Inc. to the Van Andel Research Institute (VARI; Grand Rapids, Mich.) and was formulated prior to animal treatments. Materials were stored in a refrigerator set to maintain a temperature range of 4° C. to 8° C. The NCI-H596 cell line was obtained from American Type Culture collection (Manassas, Va.).
Species. Forty human HGF transgenic C3H-SCID mice (hu-HGF-Tg-C3H-SCID) were obtained from the in-house colony at the Van Andel Research Institute (VARI; Grand Rapids, Mich.). Five C3H-SCID mice were obtained from Jackson Laboratories. Animals were 4-6 weeks old and weighed 21-22 grams each. Mice were acclimated to study conditions for at least three days prior to tumor cell inoculations. Mice were housed in a shower-in barrier facility. Animals were housed in ventilated caging systems in rooms with filters supplying High-Efficiency Particulate Air (HEPA). Only animals that appeared to be healthy and were free of obvious abnormalities were used for the study.
Study design. As most HGF responsive tumors are driven in a paracrine fashion, a xenograft model that models paracrine driven growth was selected. Mouse HGF is a poor ligand for human c-met leading to a low biological response of human c-met expressing cells lines to mouse HGF (Bhargava, M., et al., 1992; Rong, S., et al., 1992). […]
The NCI-H596 cell line bears a mutated form of the c-met gene lacking exon 14 that encodes a binding site for the E3 ubiquitin ligase Cbl (Kong-Beltran, M., 2006). […] The responsiveness of NCI-H596 can also be seen in vivo, as the cell line readily form tumors in HGF-Tg-SCID mice (expressing human HGF, as noted above), but will not form tumors in immunocompromised mice lacking human HGF (nu/nu nude mice or SCID mice). […]
NCI-H596 cells were cultured in growth media that consisted of RPMI 1640 media (Invitrogen), 2 mM L-glutamine, and 10% fetal bovine serum. […] A subset of cells was counted by trypan blue exclusion and the remainder of the cells was resuspended in 100 μl of sterile 1× PBS to a concentration of 5×10^6 cells per milliliter.
Mice were prepared for inoculation by shaving the dorsal area with clippers. […] Tumors were monitored until they reached a mean volume of 100 mm^3. […]

For a further assay, the target named is T1, EGFR (Homo sapiens, UniProt P00533).
T1 construct: endogenous in cells; host or cells: NCI-H596 (human NSCLC) cells grown as xenograft tumours in hu-HGF-Tg-SCID mice; tumour lysate, IP with MI-12-1 and immunoblot
Kind of assay: EGFR phosphorylation in NCI-H596 hu-HGF-Tg-SCID xenograft tumors (IP/immunoblot). It is filed as in vivo, mouse xenograft. Conditions: MetMAb 30 mg/kg 24 h, erlotinib 150 mg/kg 6 h prior to harvest, average of 5 animals. Here is the method: Tumors were allowed to grow to 200-300 mm^3 prior to treatment. Dosing was performed as described in Table 8. Briefly, MetMAb (30 mg/kg) or MetMAb buffer was dosed at time zero hours (0 hr) and methylcellulose tween vehicle (MCT) or erlotinib (150 mg/kg) was dosed at time 18 hours (18 hr). Mice were euthanized and tumors and plasma collected at time 24 hours (24 hr). Tumors were snap frozen in liquid nitrogen and then kept at −70° C. until they were processed for immunoprecipitation and immunoblotting.
Immunoprecipitations and Immunoblotting: To process tumors for protein analysis, tumors were first homogenized using a glass dounce with lysis buffer (Cell Signaling Technology, Inc., Danvers, Mass.), supplemented with 1 mM PMSF, additional protease inhibitor cocktail, and phosphatase inhibitor cocktail I and II (Sigma, Inc., St. Louis, Mo.). Lysates were incubated on ice for one hour and then centrifuged at 14,000×g for five minutes and supernatants collected. Protein concentrations were determined using the BCA™ Protein Assay Kit (Pierce, Inc., Rockford, Ill.) and samples were immunoblotted. […] Samples were then analyzed by SDS-PAGE and immunoblotting. […] Immunoblots were imaged and phospho-protein levels were quantified and normalized to total protein levels (e.g. pEGFR over total EGFR) using an Odyssey imager (LI-COR Biosciences, Lincoln, Nebr.). […]
In general terms: In western blotting, separated proteins are transferred to a membrane and probed.

Another assay concerns NCI-H596 cell line. Conditions: NCI-H596 cell line in vitro; cited from earlier work.

Values joined by “and” are separate entries in the source; they are usually repeats but may differ in a detail not shown here. Equal entries are not always repeated.

With `C#Cc1cccc(Nc2ncnc3cc(OCCOC)c(OCCOC)cc23)c1` [erlotinib, N-(3-ethynylphenyl)-6,7-bis(2-methoxyethoxy)-4-quinazolinamine], in the assay on NCI-H596 tumors, the “reduction in tumor growth compared to the vehicle control” value is given as “statistically insignificant reduction” and the “mean time to tumor doubling (TTD)” value is listed as 9.5 (±1.2) days.

B1: MetMAb: Anti-c-met monovalent monoclonal antibody MetMAb (rhuOA5D5v2) (WO2007/063816) (antibody, chains of the INN, looked up, V domains shown)
VH: EVQLVESGGGLVQPGGSLRLSCAASGYTFTSYWLHWVRQAPGKGLEWVGMIDPSNSDTRFNPNFKDRFTISADTSKNTAYLQMNSLRAEDTAVYYCATYRSYVTPLDYWGQGTLVTVSS
VL: DIQMTQSPSSLSASVGDRVTITCKSSQSLLYTSSQKNYLAWYQQKPGKAPKLLIYWASTRESGVPSRFSGSGSGTDFTLTISSLQPEDFATYYCQQYYAYPWTFGQGTKVEIK
modifications: one-armed
Take B1: in the assay with EGFR, the “pEGFR/total EGFR (phosphorylation of EGFR)” value is 62% (+/−21.6%) % of vehicle control and 62 (±21.6) % of vehicle control. Besides, the HGF-driven proliferation entry with NCI-H596 cell line is “blocks HGF-driven proliferation”. In addition, in the assay on NCI-H596 tumors, the “reduction in tumor growth compared to the vehicle control” value was 67% and the “mean time to tumor doubling (TTD)” value is listed as 17.8 (±2.2) days.

The values above are taken from patent US20160303127A1, “COMBINATION THERAPY WITH C-MET AND EGFR ANTAGONISTS” (Genentech, Inc., priority 2008, published 2016).
